In publication PMC2684960:

Molecular target: T1, phospho-IRF3 (S386), endogenous (human (endogenous in SALE)), Q14653
T1 chain: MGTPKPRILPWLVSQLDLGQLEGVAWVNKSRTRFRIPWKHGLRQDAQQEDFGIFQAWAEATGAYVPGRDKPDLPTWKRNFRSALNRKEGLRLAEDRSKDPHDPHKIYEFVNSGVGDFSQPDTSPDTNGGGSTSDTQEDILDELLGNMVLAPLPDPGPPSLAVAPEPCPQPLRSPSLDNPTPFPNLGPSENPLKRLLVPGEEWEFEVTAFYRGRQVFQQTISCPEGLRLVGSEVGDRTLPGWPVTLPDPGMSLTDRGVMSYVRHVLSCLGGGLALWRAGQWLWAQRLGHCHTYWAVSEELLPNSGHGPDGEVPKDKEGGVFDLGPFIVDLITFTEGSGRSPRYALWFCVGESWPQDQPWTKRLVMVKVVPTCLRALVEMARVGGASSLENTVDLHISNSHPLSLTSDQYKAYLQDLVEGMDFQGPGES
Experiment: native gel or EMSA
Conditions: remark: other sources report otherwise

stoichiometry N: 2
B1: phospho-IRF3 (S386), endogenous, Q14653 1-427 (natural protein)
chain: MGTPKPRILPWLVSQLDLGQLEGVAWVNKSRTRFRIPWKHGLRQDAQQEDFGIFQAWAEATGAYVPGRDKPDLPTWKRNFRSALNRKEGLRLAEDRSKDPHDPHKIYEFVNSGVGDFSQPDTSPDTNGGGSTSDTQEDILDELLGNMVLAPLPDPGPPSLAVAPEPCPQPLRSPSLDNPTPFPNLGPSENPLKRLLVPGEEWEFEVTAFYRGRQVFQQTISCPEGLRLVGSEVGDRTLPGWPVTLPDPGMSLTDRGVMSYVRHVLSCLGGGLALWRAGQWLWAQRLGHCHTYWAVSEELLPNSGHGPDGEVPKDKEGGVFDLGPFIVDLITFTEGSGRSPRYALWFCVGESWPQDQPWTKRLVMVKVVPTCLRALVEMARVGGASSLENTVDLHISNSHPLSLTSDQYKAYLQDLVEGMDFQGPGES
modifications: here or on the partner: phosphoserine at 386; phosphoserine at 386
